Usually EC50 stands for the concentration at which the effect is half-maximal.

The text below walks through data of US20250171562A1 (ALK ABELL, published 2025).

The labels stand for the following.
B1: B1A1(G4S)3 (bispecific antibody)
chain: QVQLQESGGGLVQTGGSLRLSCAVHGRTFSNTGMGWFRQAPGNERQFVAIISPSGTSTYYADSVKGRFTISRDPAKNTVYLQMNSLKMDDTAVYYCAASYGSNWSTLRHQRRNEYDAWGQGTQVAVSGGGGSGGGGSGGGGSEVQLLESGGGLVQPGGSLRLSCAASGFTFGNYDMAWVRQAPGKRPEWVSSIDTGGDITHYADSVKGRFTISRDNAKNTLYLQMNSLRPEDTAVYWCATDEEYALGPNEFDYYGQGTLVTVSS
B2: B1A1(G4S)1 (bispecific antibody)
chain: QVQLQESGGGLVQTGGSLRLSCAVHGRTFSNTGMGWFRQAPGNERQFVAIISPSGTSTYYADSVKGRFTISRDPAKNTVYLQMNSLKMDDTAVYYCAASYGSNWSTLRHQRRNEYDAWGQGTQVAVSGGGGSEVQLLESGGGLVQPGGSLRLSCAASGFTFGNYDMAWVRQAPGKRPEWVSSIDTGGDITHYADSVKGRFTISRDNAKNTLYLQMNSLRPEDTAVYWCATDEEYALGPNEFDYYGQGTLVTVSS
B3: A1B1(G4S)1 (bispecific antibody)
chain: EVQLLESGGGLVQPGGSLRLSCAASGFTFGNYDMAWVRQAPGKRPEWVSSIDTGGDITHYADSVKGRFTISRDNAKNTLYLQMNSLRPEDTAVYWCATDEEYALGPNEFDYYGQGTLVTVSSGGGGSQVQLQESGGGLVQTGGSLRLSCAVHGRTFSNTGMGWFRQAPGNERQFVAIISPSGTSTYYADSVKGRFTISRDPAKNTVYLQMNSLKMDDTAVYYCAASYGSNWSTLRHQRRNEYDAWGQGTQVAVS
B4: NIgG4B1A1(RS) (Fc fusion)
chain 1: QVQLQESGGGLVQTGGSLRLSCAVHGRTFSNTGMGWFRQAPGNERQFVAIISPSGTSTYYADSVKGRFTISRDPAKNTVYLQMNSLKMDDTAVYYCAASYGSNWSTLRHQRRNEYDAWGQGTQVAVSRSGPPCPPCPAPEFLGGPSVFLFPPKPKDTLMISRTPEVTCVVVDVSQEDPEVQFNWYVDGVEVHNAKTKPREEQFNSTYRVVSVLTVLHQDWLNGKEYKCKVSNKGLPSSIEKTISKAKGQPREPQVYTLPPCQEEMTKNQVSLWCLVKGFYPSDIAVEWESNGQPENNYKTTPPVLDSDGSFFLYSRLTVDKSRWQEGNVFSCSVMHEALHNHYTQKSLSLSLGK
chain 2: EVQLLESGGGLVQPGGSLRLSCAASGFTFGNYDMAWVRQAPGKRPEWVSSIDTGGDITHYADSVKGRFTISRDNAKNTLYLQMNSLRPEDTAVYWCATDEEYALGPNEFDYYGQGTLVTVSSRSGPPCPPCPAPEFLGGPSVFLFPPKPKDTLMISRTPEVTCVVVDVSQEDPEVQFNWYVDGVEVHNAKTKPREEQFNSTYRVVSVLTVLHQDWLNGKEYKCKVSNKGLPSSIEKTISKAKGQPREPQVCTLPPSQEEMTKNQVSLSCAVKGFYPSDIAVEWESNGQPENNYKTTPPVLDSDGSFFLVSRLTVDKSRWQEGNVFSCSVMHEALHNHYTQKSLSLSLGK
notes: same for the Fc fusions below
B5: sdAb A2 (VHH)
VHH: EVQLLESGGGLVQPGGSLRLSCAASGFRFGNYDMAWVRQAPGKRYEWVSSIDTGGDITHYADSVKGRFTISRDNAKNTLYLQMNSLRPEDTAEYWCATDEEYALGPNEFDYYGQGTLVTVS
notes: also called A1 triple mutant (T28R, P45Y, V93E)
B6: F5A1(G4S)4 (bispecific antibody)
chain: DVQLQESGGGLVQPGGSLRLSCAASGSIFSIDIMGWYRQAPGKQRELVATMPEGNYINYADSVKGRLTLSRDKGKNTVYLQLNSLKPEDTAVYYCYGFGVREGRGNVYWGQGTQVTVSGGGGSGGGGSGGGGSGGGGSEVQLLESGGGLVQPGGSLRLSCAASGFTFGNYDMAWVRQAPGKRPEWVSSIDTGGDITHYADSVKGRFTISRDNAKNTLYLQMNSLRPEDTAVYWCATDEEYALGPNEFDYYGQGTLVTVS
B7: sdAb F6 (VHH)
VHH: DVQLQESGGGLVQAGGSLRLSCAASGLTFGSYDMGWYRQAPGKQRELVGRIRNDGITYYADSVKGRFTMSRDNAKNTVYLQMNSLKPEDTAVYYCAADGTGLGHYDYWGQGTQVTVS
B8: B1A1(G4S)2 (bispecific antibody)
chain: QVQLQESGGGLVQTGGSLRLSCAVHGRTFSNTGMGWFRQAPGNERQFVAIISPSGTSTYYADSVKGRFTISRDPAKNTVYLQMNSLKMDDTAVYYCAASYGSNWSTLRHQRRNEYDAWGQGTQVAVSGGGGSGGGGSEVQLLESGGGLVQPGGSLRLSCAASGFTFGNYDMAWVRQAPGKRPEWVSSIDTGGDITHYADSVKGRFTISRDNAKNTLYLQMNSLRPEDTAVYWCATDEEYALGPNEFDYYGQGTLVTVSS
B9: NIgG4B1A1(G4S)1 (Fc fusion)
chain 1: QVQLQESGGGLVQTGGSLRLSCAVHGRTFSNTGMGWFRQAPGNERQFVAIISPSGTSTYYADSVKGRFTISRDPAKNTVYLQMNSLKMDDTAVYYCAASYGSNWSTLRHQRRNEYDAWGQGTQVAVSGGGGSGPPCPPCPAPEFLGGPSVFLFPPKPKDTLMISRTPEVTCVVVDVSQEDPEVQFNWYVDGVEVHNAKTKPREEQFNSTYRVVSVLTVLHQDWLNGKEYKCKVSNKGLPSSIEKTISKAKGQPREPQVYTLPPCQEEMTKNQVSLWCLVKGFYPSDIAVEWESNGQPENNYKTTPPVLDSDGSFFLYSRLTVDKSRWQEGNVFSCSVMHEALHNHYTQKSLSLSLGK
chain 2: EVQLLESGGGLVQPGGSLRLSCAASGFTFGNYDMAWVRQAPGKRPEWVSSIDTGGDITHYADSVKGRFTISRDNAKNTLYLQMNSLRPEDTAVYWCATDEEYALGPNEFDYYGQGTLVTVSSGGGGSGPPCPPCPAPEFLGGPSVFLFPPKPKDTLMISRTPEVTCVVVDVSQEDPEVQFNWYVDGVEVHNAKTKPREEQFNSTYRVVSVLTVLHQDWLNGKEYKCKVSNKGLPSSIEKTISKAKGQPREPQVCTLPPSQEEMTKNQVSLSCAVKGFYPSDIAVEWESNGQPENNYKTTPPVLDSDGSFFLVSRLTVDKSRWQEGNVFSCSVMHEALHNHYTQKSLSLSLGK
B10: A1B1(G4S)3 (bispecific antibody)
chain: EVQLLESGGGLVQPGGSLRLSCAASGFTFGNYDMAWVRQAPGKRPEWVSSIDTGGDITHYADSVKGRFTISRDNAKNTLYLQMNSLRPEDTAVYWCATDEEYALGPNEFDYYGQGTLVTVSSGGGGSGGGGSGGGGSQVQLQESGGGLVQTGGSLRLSCAVHGRTFSNTGMGWFRQAPGNERQFVAIISPSGTSTYYADSVKGRFTISRDPAKNTVYLQMNSLKMDDTAVYYCAASYGSNWSTLRHQRRNEYDAWGQGTQVAVS

This test deals with T1, recombinant human IgE (human, UniProt P01854-1 1-428).
T1 construct: made in-house (ALK); preloaded on immobilised FcεRIα in the displacement ELISA
T1 sequence (P01854 other isoform, or with tags, fused parts or gaps): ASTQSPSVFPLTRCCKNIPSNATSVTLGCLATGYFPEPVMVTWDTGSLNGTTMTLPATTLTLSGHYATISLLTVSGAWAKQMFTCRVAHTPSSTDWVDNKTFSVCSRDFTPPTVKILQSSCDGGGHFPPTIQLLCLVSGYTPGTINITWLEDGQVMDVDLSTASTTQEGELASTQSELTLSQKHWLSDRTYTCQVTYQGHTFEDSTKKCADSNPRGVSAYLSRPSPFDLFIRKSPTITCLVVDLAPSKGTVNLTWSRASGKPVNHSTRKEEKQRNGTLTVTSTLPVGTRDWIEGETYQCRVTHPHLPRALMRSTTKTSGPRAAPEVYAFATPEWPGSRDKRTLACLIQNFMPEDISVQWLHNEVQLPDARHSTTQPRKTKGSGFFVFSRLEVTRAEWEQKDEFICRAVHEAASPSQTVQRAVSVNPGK
The test is described as follows: IgE-FcεRIα displacement ELISA. How it is done: The displacement effect was tested using IgE-FcεRIα displacement ELISA assay. Maxisorp® microtiter plates (Thermo Scientific Nunc, Roskilde, Denmark) were coated with 100 μl streptavidin, 5 μg/ml (Thermo Scientific, Waltham, MA) for 18 h at 4° C. followed by wash with 300 μl washing buffer (PBS containing 0.05% Tween 20) using an AquaMax® 2000 plate washer (Molecular Devices, San Jose, CA). Remaining binding sites were blocked with 250 μl blocking buffer (PBS containing 2% BSA) for 2 h and washed with 300 μl washing buffer. Subsequently, the bound streptavidin was loaded with 100 μl (0.1 μg/ml) recombinant human FcεRIα (site specific biotinylated via avi-tag, made in-house, ALK, Hørsholm, Denmark) for 1 h and plates washed twice with 300 μl washing buffer. The bound receptor was then loaded with 100 μl recombinant human IgE (made in-house, ALK, Hørsholm, Denmark), 13 ng/ml (pre-titrated to reach an OD₄₅₀ signal in the range of 1.5-2.5 in the absence of displacement components) for 1h followed by three washes of 300 μl washing buffer.
displacement step: 100 μl sdAbs diluted in concentration series (pM-μM range) or blocking buffer only as a non-displacement negative control, were added to the ELISA wells and incubated for 1 h. Any IgE, displaced from the receptor by a sdAb was washed away by three washes of 300 μl washing buffer.
The ability of the various sdAbs to displace IgE from the receptor (FcεRIα) was evaluated by use of the ELISA based IgE-FcεRIα displacement assay. The percent displacement effect was calculated as the relative reduction in signal compared to the control with no sdAb added. The EC₅₀ values and the maximal effects were determined (table 15).
For the molecule B1, the EC50 turned out to be 5.3 nM and the Max effect was greater than 95%.

In the case of B2, the EC50 amounted to 5.3 nM and the Max effect was greater than 95%.

As for B3, the EC50 worked out at 1 nM and the Max effect is greater than 95%.

Consider B4, for which the half-maximal effective concentration (EC50) was found to be 1.9 nM and the Max effect is greater than 95%.

With B5, the EC50 was determined as 250 nM and the Max effect is greater than 95%.

B6: the EC50 came to 1100 nM and the Max effect came to 75%.

As to B7, the Max effect was less than 20%.

As for B8, the EC50 worked out at 10 nM and the Max effect was greater than 95%.

Turning to B9, the EC50 was determined as 1.1 nM and the Max effect is greater than 95%.

With B10, the EC50 is 0.6 nM and the Max effect is greater than 95%.
